Source: IntAct's records for PubMed 35512704

B1: Speckle-type POZ protein (Homo sapiens), O43791 (parent)
chain: MSRVPSPPPPAEMSSGPVAESWCYTQIKVVKFSYMWTINNFSFCREEMGEVIKSSTFSSGANDKLKWCLRVNPKGLDEESKDYLSLYLLLVSCPKSEVRAKFKFSILNAKGEETKAMESQRAYRFVQGKDWGFKKFIRRDFLLDEANGLLPDDKLTLFCEVSVVQDSVNISGQNTMNMVKVPECRLADELGGLWENSRFTDCCLCVAGQEFQAHKAILAARSPVFSAMFEHEMEESKKNRVEINDVEPEVFKEMMCFIYTGKAPNLDKMADDLLAAADKYALERLKVMCEDALCSNLSVENAAEILILADLHSADQLKTQAVDFINYHASDVLETSGWKSMVVSHPHLVAEAYRSLASAQCPFLGPPRKRLKQS
partner: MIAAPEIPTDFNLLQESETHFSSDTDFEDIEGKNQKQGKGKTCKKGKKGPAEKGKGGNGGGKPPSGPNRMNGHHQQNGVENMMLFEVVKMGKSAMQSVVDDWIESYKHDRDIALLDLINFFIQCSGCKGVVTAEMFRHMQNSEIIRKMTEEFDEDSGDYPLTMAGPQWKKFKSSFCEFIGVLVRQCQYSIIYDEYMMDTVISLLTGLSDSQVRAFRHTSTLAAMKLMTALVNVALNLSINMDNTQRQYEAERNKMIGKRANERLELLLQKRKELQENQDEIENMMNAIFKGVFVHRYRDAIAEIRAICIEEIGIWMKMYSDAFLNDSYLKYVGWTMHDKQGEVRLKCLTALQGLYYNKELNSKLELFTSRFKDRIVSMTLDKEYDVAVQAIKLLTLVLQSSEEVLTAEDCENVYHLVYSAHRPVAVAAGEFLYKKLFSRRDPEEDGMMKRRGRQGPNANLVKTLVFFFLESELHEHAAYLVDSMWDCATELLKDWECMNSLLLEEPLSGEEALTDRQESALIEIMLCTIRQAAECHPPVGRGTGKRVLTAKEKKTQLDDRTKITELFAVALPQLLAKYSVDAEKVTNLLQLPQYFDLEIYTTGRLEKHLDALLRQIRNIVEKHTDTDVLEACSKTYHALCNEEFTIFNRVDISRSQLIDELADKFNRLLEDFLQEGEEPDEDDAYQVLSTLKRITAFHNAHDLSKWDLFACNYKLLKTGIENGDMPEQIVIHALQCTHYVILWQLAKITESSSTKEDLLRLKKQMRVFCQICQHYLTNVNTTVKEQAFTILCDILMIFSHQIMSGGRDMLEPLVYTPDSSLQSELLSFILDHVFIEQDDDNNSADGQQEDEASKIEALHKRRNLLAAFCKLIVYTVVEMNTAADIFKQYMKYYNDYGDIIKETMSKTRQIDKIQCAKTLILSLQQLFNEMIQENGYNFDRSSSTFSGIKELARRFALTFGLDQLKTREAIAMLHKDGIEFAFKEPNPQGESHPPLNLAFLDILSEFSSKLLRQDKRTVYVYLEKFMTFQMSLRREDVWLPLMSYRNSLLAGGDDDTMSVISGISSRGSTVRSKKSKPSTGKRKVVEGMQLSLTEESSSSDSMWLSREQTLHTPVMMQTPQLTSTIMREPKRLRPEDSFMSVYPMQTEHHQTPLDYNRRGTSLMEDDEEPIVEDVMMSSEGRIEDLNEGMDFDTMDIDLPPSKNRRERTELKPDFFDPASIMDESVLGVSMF
B2: Speckle-type POZ protein (Homo sapiens), O43791 (parent)
chain: B1 chain
partner: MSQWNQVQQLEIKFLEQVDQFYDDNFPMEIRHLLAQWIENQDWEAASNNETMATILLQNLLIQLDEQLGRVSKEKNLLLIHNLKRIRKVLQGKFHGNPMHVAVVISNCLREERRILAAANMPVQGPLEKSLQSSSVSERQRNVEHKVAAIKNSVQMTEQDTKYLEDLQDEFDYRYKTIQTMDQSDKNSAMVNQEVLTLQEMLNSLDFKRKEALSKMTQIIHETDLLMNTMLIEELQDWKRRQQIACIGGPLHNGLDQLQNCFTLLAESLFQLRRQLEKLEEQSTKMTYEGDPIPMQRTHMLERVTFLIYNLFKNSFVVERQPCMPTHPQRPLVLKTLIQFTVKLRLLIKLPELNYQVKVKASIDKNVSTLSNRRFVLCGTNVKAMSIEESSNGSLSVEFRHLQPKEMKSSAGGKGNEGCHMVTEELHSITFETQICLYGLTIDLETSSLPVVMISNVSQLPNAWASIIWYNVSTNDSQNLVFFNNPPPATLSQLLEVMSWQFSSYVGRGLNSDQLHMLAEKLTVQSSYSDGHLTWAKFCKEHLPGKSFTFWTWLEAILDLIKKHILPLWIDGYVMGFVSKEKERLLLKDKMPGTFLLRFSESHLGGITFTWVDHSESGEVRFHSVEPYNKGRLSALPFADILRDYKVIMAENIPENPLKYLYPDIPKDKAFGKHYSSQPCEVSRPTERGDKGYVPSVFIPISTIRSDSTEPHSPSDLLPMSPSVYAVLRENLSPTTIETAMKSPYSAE

Variants of: B1
Settings: with stag2_human STAG2, Q8N3U4

Variant	effect of a mutation on the interaction
MSRVPSPPPPAEMSSGPVAESWCYTQIKVVKFSYMWTINNFSFCREEMGEVIKSSTFSSGANDKLKWCLRVNPKGLDEESKDYLSLYLLLVSCPKSEVRAKCKFSILNAKGEETKAMESQRAYRFVQGKDWGFKKFIRRDFLLDEANGLLPDDKLTLFCEVSVVQDSVNISGQNTMNMVKVPECRLADELGGLWENSRFTDCCLCVAGQEFQAHKAILAARSPVFSAMFEHEMEESKKNRVEINDVEPEVFKEMMCFIYTGKAPNLDKMADDLLAAADKYALERLKVMCEDALCSNLSVENAAEILILADLHSADQLKTQAVDFINYHASDVLETSGWKSMVVSHPHLVAEAYRSLASAQCPFLGPPRKRLKQS [F102C]	with no effect

Variants of: B1
Settings: with stag2_human STAG2, Q8N3U4
Remark: another data set of the same source

Variant	effect of a mutation on the interaction
MSRVPSPPPPAEMSSGPVAESWCYTQIKVVKFSYMWTINNFSFCREEMGEVIKSSTFSSGANDKLKWCLRVNPKGLDEESKDYLSLYLLLVSCPKSEVRAKFKFSILNAKGEETKAMESQRAYRFVQGKDWGVKKFIRRDFLLDEANGLLPDDKLTLFCEVSVVQDSVNISGQNTMNMVKVPECRLADELGGLWENSRFTDCCLCVAGQEFQAHKAILAARSPVFSAMFEHEMEESKKNRVEINDVEPEVFKEMMCFIYTGKAPNLDKMADDLLAAADKYALERLKVMCEDALCSNLSVENAAEILILADLHSADQLKTQAVDFINYHASDVLETSGWKSMVVSHPHLVAEAYRSLASAQCPFLGPPRKRLKQS [F133V]	with no effect

Variants of: B1
Settings: with stag2_human STAG2, Q8N3U4
Remark: another data set of the same source

Variant	effect of a mutation on the interaction
MSRVPSPPPPAEMSSGPVAESWCYTQIKVVKFSYMWTINNFSFCREEMGEVIKSSTFSSGANDKLKWCLRVNPKGLDEESKDYLSLYLLLVSCPKSEVRAKFKFSILNAKGEETKAMESQRAYRFVQGKDWGLKKFIRRDFLLDEANGLLPDDKLTLFCEVSVVQDSVNISGQNTMNMVKVPECRLADELGGLWENSRFTDCCLCVAGQEFQAHKAILAARSPVFSAMFEHEMEESKKNRVEINDVEPEVFKEMMCFIYTGKAPNLDKMADDLLAAADKYALERLKVMCEDALCSNLSVENAAEILILADLHSADQLKTQAVDFINYHASDVLETSGWKSMVVSHPHLVAEAYRSLASAQCPFLGPPRKRLKQS [F133L]	with no effect

Variants of: B1
Settings: with stag2_human STAG2, Q8N3U4
Remark: another data set of the same source

Variant	effect of a mutation on the interaction
MSRVPSPPPPAEMSSGPVAESWCYTQIKVVKFSYMWTINNFSFCREEMGEVIKSSTFSSGANDKLKWCLRVNPKGLDEESKDYLSLCLLLVSCPKSEVRAKFKFSILNAKGEETKAMESQRAYRFVQGKDWGFKKFIRRDFLLDEANGLLPDDKLTLFCEVSVVQDSVNISGQNTMNMVKVPECRLADELGGLWENSRFTDCCLCVAGQEFQAHKAILAARSPVFSAMFEHEMEESKKNRVEINDVEPEVFKEMMCFIYTGKAPNLDKMADDLLAAADKYALERLKVMCEDALCSNLSVENAAEILILADLHSADQLKTQAVDFINYHASDVLETSGWKSMVVSHPHLVAEAYRSLASAQCPFLGPPRKRLKQS [Y87C]	with no effect

Variants of: B2
Settings: with stat4_human STAT4, Q14765

Variant	effect of a mutation on the interaction
MSRVPSPPPPAEMSSGPVAESWCYTQIKVVKFSYMWTINNFSFCREEMGEVIKSSTFSSGANDKLKWCLRVNPKGLDEESKDYLSLYLLLVSCPKSEVRAKCKFSILNAKGEETKAMESQRAYRFVQGKDWGFKKFIRRDFLLDEANGLLPDDKLTLFCEVSVVQDSVNISGQNTMNMVKVPECRLADELGGLWENSRFTDCCLCVAGQEFQAHKAILAARSPVFSAMFEHEMEESKKNRVEINDVEPEVFKEMMCFIYTGKAPNLDKMADDLLAAADKYALERLKVMCEDALCSNLSVENAAEILILADLHSADQLKTQAVDFINYHASDVLETSGWKSMVVSHPHLVAEAYRSLASAQCPFLGPPRKRLKQS [F102C]	with no effect

Variants of: B2
Settings: with stat4_human STAT4, Q14765
Remark: another data set of the same source

Variant	effect of a mutation on the interaction
MSRVPSPPPPAEMSSGPVAESWCYTQIKVVKFSYMWTINNFSFCREEMGEVIKSSTFSSGANDKLKWCLRVNPKGLDEESKDYLSLYLLLVSCPKSEVRAKFKFSILNAKGEETKAMESQRAYRFVQGKDWGVKKFIRRDFLLDEANGLLPDDKLTLFCEVSVVQDSVNISGQNTMNMVKVPECRLADELGGLWENSRFTDCCLCVAGQEFQAHKAILAARSPVFSAMFEHEMEESKKNRVEINDVEPEVFKEMMCFIYTGKAPNLDKMADDLLAAADKYALERLKVMCEDALCSNLSVENAAEILILADLHSADQLKTQAVDFINYHASDVLETSGWKSMVVSHPHLVAEAYRSLASAQCPFLGPPRKRLKQS [F133V]	with no effect

Variants of: B2
Settings: with stat4_human STAT4, Q14765
Remark: another data set of the same source

Variant	effect of a mutation on the interaction
MSRVPSPPPPAEMSSGPVAESWCYTQIKVVKFSYMWTINNFSFCREEMGEVIKSSTFSSGANDKLKWCLRVNPKGLDEESKDYLSLYLLLVSCPKSEVRAKFKFSILNAKGEETKAMESQRAYRFVQGKDWGLKKFIRRDFLLDEANGLLPDDKLTLFCEVSVVQDSVNISGQNTMNMVKVPECRLADELGGLWENSRFTDCCLCVAGQEFQAHKAILAARSPVFSAMFEHEMEESKKNRVEINDVEPEVFKEMMCFIYTGKAPNLDKMADDLLAAADKYALERLKVMCEDALCSNLSVENAAEILILADLHSADQLKTQAVDFINYHASDVLETSGWKSMVVSHPHLVAEAYRSLASAQCPFLGPPRKRLKQS [F133L]	with no effect

Variants of: B2
Settings: with stat4_human STAT4, Q14765
Remark: another data set of the same source

Variant	effect of a mutation on the interaction
MSRVPSPPPPAEMSSGPVAESWCYTQIKVVKFSYMWTINNFSFCREEMGEVIKSSTFSSGANDKLKWCLRVNPKGLDEESKDYLSLCLLLVSCPKSEVRAKFKFSILNAKGEETKAMESQRAYRFVQGKDWGFKKFIRRDFLLDEANGLLPDDKLTLFCEVSVVQDSVNISGQNTMNMVKVPECRLADELGGLWENSRFTDCCLCVAGQEFQAHKAILAARSPVFSAMFEHEMEESKKNRVEINDVEPEVFKEMMCFIYTGKAPNLDKMADDLLAAADKYALERLKVMCEDALCSNLSVENAAEILILADLHSADQLKTQAVDFINYHASDVLETSGWKSMVVSHPHLVAEAYRSLASAQCPFLGPPRKRLKQS [Y87C]	with no effect
